Experimental findings from paper PMC7801428 (Nature Communications, 2021) are described below.

For this assay, the target named is SARS-CoV-2 RBD (residues V320 to G550, strain Wuhan-Hu-1), C-terminal His tag (SARS-CoV-2, UniProt P0DTC2). Nature of the assay: BLI. The conditions noted are these: both partners purified.

B1: human-mouse chimeric antibody 3C1 (c3C1) (antibody, V domains shown)
VH: EVQLQESGPSLVKPSQTLSLTCSVTGDSITNGYWNWIRKFPGNKLEYMGYISYSGSTYYSPSLKSRISITRDTSKNQHYLQLNSVTSEDTATYYCASDYHGSKYYFDYWGQGTTLTVSS
VL: DIVMTQSHKFMSTSVGHRVSITCKASQDVGNDVAWYQQKPGQSPKLLIYWASTRHTGVPDRFTGSGSGTDFTLTISNVQSEDLADYFCQQYNRYPYTFGGGTKLEIK
notes: also called chimeric MAb c3C1
In general, Kd refers to the equilibrium constant for the complex coming apart. A lower Kd goes with a tighter complex. Regarding B1, the Kd was under 1 pM.
